Changes are numbered by the printed parent chain.

Experimental findings from patent US6870041B1, “MurE protein and gene of pseudomonas aeruginosa” (priority 1999, dated 2005) are described below.

Data set [1] addresses T1, P. aeruginosa MurE (Pseudomonas aeruginosa, UniProt Q59650).
T1 construct: 6xHis (pET-15b) (N); made in house; host or cells: E. coli BL21(DE3)/pLysS, plasmid pPaeMurE (pET-15b)
T1 sequence (Q59650 whole entry, looked up): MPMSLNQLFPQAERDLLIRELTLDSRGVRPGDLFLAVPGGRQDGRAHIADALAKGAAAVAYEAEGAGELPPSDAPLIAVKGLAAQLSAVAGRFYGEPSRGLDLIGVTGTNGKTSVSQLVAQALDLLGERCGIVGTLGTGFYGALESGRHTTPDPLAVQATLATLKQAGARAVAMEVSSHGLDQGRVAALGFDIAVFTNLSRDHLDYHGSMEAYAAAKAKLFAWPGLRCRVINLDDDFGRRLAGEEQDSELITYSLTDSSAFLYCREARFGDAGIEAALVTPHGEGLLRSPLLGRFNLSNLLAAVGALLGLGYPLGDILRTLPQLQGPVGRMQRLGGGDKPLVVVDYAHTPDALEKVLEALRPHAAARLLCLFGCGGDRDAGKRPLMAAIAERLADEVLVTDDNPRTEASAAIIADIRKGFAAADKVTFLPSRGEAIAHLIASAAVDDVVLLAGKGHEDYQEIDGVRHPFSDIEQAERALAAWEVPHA
Kind of data set: ATP-dependent MurE activity, pyruvate kinase/lactate dehydrogenase coupled enzyme assay (ADP formation). Format: biochemical. The conditions noted are these: recombinant MurE from P. aeruginosa; 25° C., pH 8.0; ADP formed per min per mg. Here is the method:
(§1) The ATP-dependent MurE activity was assayed by monitoring the formation of product ADP using the pyruvate kinase and lactate dehydrogenase coupled enzyme assay. The reaction was monitored spectrophotometrically.
(§2) Typically, the assay contained 100 mM BIS-TRIS-propane, pH 8.0, 200 μM NADH, 1 mM ATP, 20 mM PEP, 5 mM MgCl2, 1 mM DTT, 350 μM UDP-N-acetyl-muramyl-L-alanine-D-Glutamine, 1 mM m-Dap, 33 units/ml of pyruvate kinase and 1660 units/ml of lactate dehydrogenase in a final volume of 200 or 400 μl. The mixture was incubated at 25° C. for 5 min and the reaction initiated by the addition of 1-10 μg of MurE. These conditions are one example of an assay useful for evaluating the activity of MurE. Other assays can be used, or amounts of buffers, substrate and enzyme can be changed, as desired, to alter the rate of production of ADP.
(§3) ADP formation was monitored by the decrease in absorbance at 340 nm as a function of time using a MOLECULAR DEVICES SPECTRAMAXPLUS™ microtiterplate spectrophotomer (for 200 μl assays) or a HEWLETT-PACKARD HP8452A spectrophotometer equipped with a circulating water bath (for 400 μl assays). Rates were calculated from the linear portions of the progress curves using the extinction coefficient for NADH, e=6220 cm^−1 M-1. One unit of MurE activity is equal to 1 μmol of ADP formed per min at 25° C.

Data set [2] has as its target T2, E. coli MurE (Escherichia coli, UniProt P22188).
T2 sequence (P22188 whole entry, looked up): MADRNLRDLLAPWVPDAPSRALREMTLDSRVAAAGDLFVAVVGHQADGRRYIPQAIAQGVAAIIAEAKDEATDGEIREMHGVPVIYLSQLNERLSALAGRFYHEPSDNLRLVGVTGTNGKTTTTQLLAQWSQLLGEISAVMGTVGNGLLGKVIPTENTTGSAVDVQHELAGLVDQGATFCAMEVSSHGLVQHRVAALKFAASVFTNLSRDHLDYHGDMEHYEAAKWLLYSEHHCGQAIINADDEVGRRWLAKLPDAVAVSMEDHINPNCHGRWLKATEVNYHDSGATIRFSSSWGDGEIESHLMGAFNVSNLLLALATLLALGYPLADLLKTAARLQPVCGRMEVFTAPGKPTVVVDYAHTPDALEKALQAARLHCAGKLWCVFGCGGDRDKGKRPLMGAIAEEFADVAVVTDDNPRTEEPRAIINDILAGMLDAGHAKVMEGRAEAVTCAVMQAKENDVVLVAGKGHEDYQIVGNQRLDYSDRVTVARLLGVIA
The description is as above. The note with it: recombinant MurE from E. coli; 25° C., pH 8.0; ADP formed per min per mg. Format: biochemical. The protocol: as §1, §2, §3

B1: UDP-N-acetylmuramoyl-L-alanyl-D-glutamate:meso-2,6-diaminopimelate ligase (protein, listed as Pseudomonas aeruginosa)
chain: T1 sequence (Q59650 whole entry, looked up) with N6S, R26H, G31V, A36T, R41H, A53T, A57T, G225D, D338G
modifications: His tag
In the case of B1, in data set [1], the “Specific activities of recombinant MurE, P. aeruginosa” value worked out at 3.31 µmol/min/mg. Also, the “Specific activities of recombinant MurE, E. coli” value in data set [2] worked out at 0.68 µmol/min/mg.
